Assay results published in patent US20250011363A1, “OPTIMIZED SHORTENED PEPTIDE THAT BINDS TO ACETYLCHOLINE RECEPTOR, AND USE THEREOF” (SKINMED CO., LTD., priority 2021, published 2025).

Each binder was assayed against acetylcholine receptor (assay: SPR, AchR immobilised on chip, peptide 10 uM).
Binder RKVQSK [6mer-1-251] has a Binding affinity (RU) of 133 RU.
In the case of RRLFCR [6mer-1-219], the Binding affinity (RU) is reported as 121 RU.
KNEMR [5mer-841] showed a Binding affinity (RU) of 22 RU.
KKRRRK [6mer-1-223] was tested, and the Binding affinity (RU) was 133 RU.
For KRRVRK [6mer-1-213], the Binding affinity (RU) was 127 RU.
In the case of KKQVTR [6mer-1-218], the Binding affinity (RU) is reported as 126 RU.
RRRVRR [6mer-1-222] gave a Binding affinity (RU) of 145 RU.
RRVICR [6mer-1-250] was tested, and the Binding affinity (RU) was 142 RU.
Work on RRGISR [6mer-1-234] yielded a Binding affinity (RU) of 142 RU.
With KKRQRR [6mer-1-204] the Binding affinity (RU) was 154 RU.
RKLISR [6mer-1-236] was tested, and the Binding affinity (RU) was 151 RU.
Binder RRRVQK [6mer-1-244] has a Binding affinity (RU) of 144 RU.
With RNEFK [5mer-1140] the Binding affinity (RU) was 28 RU.
For KTENK [5mer-1142], the Binding affinity (RU) was 24 RU.
With RRVQLK [6mer-1-253] the Binding affinity (RU) was 145 RU.
KRVRTK [6mer-1-256] gave a Binding affinity (RU) of 125 RU.
RKGYTR [6mer-1-209] was tested, and the Binding affinity (RU) was 121 RU.
For KRQRTK [6mer-1-231], the Binding affinity (RU) was 136 RU.
For RRRICR [6mer-1-212], the Binding affinity (RU) was 148 RU.
For RENHK [5mer-1138], the Binding affinity (RU) was 24 RU.
RDWFR [5mer-1148] showed a Binding affinity (RU) of 24 RU.
REEVR [5mer-1141] was tested, and the Binding affinity (RU) was 26 RU.
RKLICK [6mer-1-1225] was tested, and the Binding affinity (RU) was 142 RU.
Binder KHCWK [5mer-1139] has a Binding affinity (RU) of 28 RU.
KKLQYK [6mer-1-258] was tested, and the Binding affinity (RU) was 137 RU.
KRVLQR [6mer-1-217] gave a Binding affinity (RU) of 135 RU.
RKSRYK [6mer-1-237] gave a Binding affinity (RU) of 137 RU.
KAPEK [5mer-847] gave a Binding affinity (RU) of 28 RU.
For RKSIQR [6mer-1-216], the Binding affinity (RU) was 148 RU.
Work on RRGFRR [6mer-1-245] yielded a Binding affinity (RU) of 142 RU.
Work on RKWVTR [6mer-1-257] yielded a Binding affinity (RU) of 124 RU.
With RRLQTR [6mer-1-206] the Binding affinity (RU) was 121 RU.
Work on KKQLLR [6mer-1-211] yielded a Binding affinity (RU) of 123 RU.
Binder RRSYCK [6mer-1-214] has a Binding affinity (RU) of 139 RU.
RKVLCR [6mer-1-239] gave a Binding affinity (RU) of 136 RU.
In the case of RHNVK [5mer-842], the Binding affinity (RU) is reported as 20 RU.
Work on RRLYYK [6mer-1-241] yielded a Binding affinity (RU) of 148 RU.
Work on RHHDK [5mer-839] yielded a Binding affinity (RU) of 26 RU.
RHSMK [5mer-838] was tested, and the Binding affinity (RU) was 13 RU.
Binder RDTGK [5mer-1147] has a Binding affinity (RU) of 16 RU.
KRQYLK [6mer-1-242] was tested, and the Binding affinity (RU) was 148 RU.
Binder RRRICK [6mer-1-232] has a Binding affinity (RU) of 146 RU.
In the case of KTDPR [5mer-844], the Binding affinity (RU) is reported as 32 RU.
RYMVK [5mer-848] was tested, and the Binding affinity (RU) was 12 RU.
In the case of KRWRLR [6mer-1-205], the Binding affinity (RU) is reported as 133 RU.
KPHGR [5mer-1146] gave a Binding affinity (RU) of 23 RU.
Work on KRLVQK [6mer-1-227] yielded a Binding affinity (RU) of 139 RU.
RRQITR [6mer-1-203] was tested, and the Binding affinity (RU) was 142 RU.
For KKWFQR [6mer-1-221], the Binding affinity (RU) was 148 RU.
With KAKNR [5mer-1144] the Binding affinity (RU) was 33 RU.
KRQRQK [6mer-1-220] gave a Binding affinity (RU) of 148 RU.
With RATGK [5mer-1143] the Binding affinity (RU) was 19 RU.
RKGVSR [6mer-1-249] gave a Binding affinity (RU) of 142 RU.
With RRWIRR [6mer-1-252] the Binding affinity (RU) was 131 RU.
In the case of KTTPK [5mer-843], the Binding affinity (RU) is reported as 17 RU.
With KKVRQK [6mer-1-247] the Binding affinity (RU) was 122 RU.
Work on RRSRRR [6mer-1-240] yielded a Binding affinity (RU) of 148 RU.
KKRYCR [6mer-1-235] was tested, and the Binding affinity (RU) was 148 RU.
In the case of KRVIYK [6mer-1-228], the Binding affinity (RU) is reported as 139 RU.
With KKSQQR [6mer-1-207] the Binding affinity (RU) was 151 RU.
For RKSLSK [6mer-1-254], the Binding affinity (RU) was 137 RU.
RKRYSR [6mer-1-215] showed a Binding affinity (RU) of 136 RU.
Work on RRQLTK [6mer-1-202] yielded a Binding affinity (RU) of 154 RU.
KDTAR [5mer-840] gave a Binding affinity (RU) of 11 RU.
KKWYLR [6mer-1-243] gave a Binding affinity (RU) of 136 RU.
RRRLLR [6mer-1-229] showed a Binding affinity (RU) of 153 RU.
For RYEDR [5mer-845], the Binding affinity (RU) was 15 RU.
RRLIYK [6mer-1-248] was tested, and the Binding affinity (RU) was 151 RU.
In the case of KRRYRK [6mer-1-259], the Binding affinity (RU) is reported as 141 RU.
In the case of KKGFQK [6mer-1-255], the Binding affinity (RU) is reported as 139 RU.
Binder RKGYCK [6mer-1-230] has a Binding affinity (RU) of 128 RU.
In the case of RRLVSR [6mer-1-246], the Binding affinity (RU) is reported as 122 RU.
With RRWITR [6mer-1-226] the Binding affinity (RU) was 128 RU.
With KKWQSR [6mer-1-233] the Binding affinity (RU) was 128 RU.
RMPAK [5mer-1145] was tested, and the Binding affinity (RU) was 25 RU.
In the case of RPDWR [5mer-846], the Binding affinity (RU) is reported as 32 RU.
KRGFLR [6mer-1-224] showed a Binding affinity (RU) of 142 RU.
With KKGQQK [6mer-1-238] the Binding affinity (RU) was 154 RU.
Binder KRSIQR [6mer-1-208] has a Binding affinity (RU) of 122 RU.
